Data on 71 molecules can be found in patent US20250011363A1, “OPTIMIZED SHORTENED PEPTIDE THAT BINDS TO ACETYLCHOLINE RECEPTOR, AND USE THEREOF” (SKINMED CO., LTD., priority 2021, published 2025).

Assay [1] deals with acetylcholine receptor. As to the kind of experiment: SPR, receptor immobilized, peptide 10 uM.
Assay [2] addresses acetylcholine receptor. As to the kind of experiment: SPR, AchR immobilised on CM5 chip, peptide 10 uM. (In SPR one partner is held on a chip, and binding of the other changes the refractive index at the surface.)

B1: 5mer-1055 (peptide)
peptide: KHHEK
B1 registered a Binding affinity (RU) with acetylcholine receptor [1] of 15 RU.

B2: 5mer-1067 (peptide)
peptide: KHENK
Consider B2, for which the Binding affinity (RU) in the assay with acetylcholine receptor [1] was 23 RU.

B3: 5mer-1062 (peptide)
peptide: RAPWR
In turn, B3 returned a Binding affinity (RU) with acetylcholine receptor [1] of 24 RU.

B4: 5mer-762 (peptide)
peptide: KMPER
In turn, B4 showed a Binding affinity (RU) with acetylcholine receptor [1] of 21 RU.

B5: 5mer-1073 (peptide)
peptide: RDEAK
As to B5, the Binding affinity (RU) with acetylcholine receptor [1] came out at 29 RU.

B6: 5mer-1060 (peptide)
peptide: KTHIK
As to B6, the Binding affinity (RU) in the assay with acetylcholine receptor [1] turned out to be 29 RU.

B7: 5mer-1064 (peptide)
peptide: KCMKR
Molecule B7 had a Binding affinity (RU) with acetylcholine receptor [1] of 20 RU.

B8: 5mer-756 (peptide)
peptide: RCDWR
B8 showed a Binding affinity (RU) with acetylcholine receptor [1] of 18 RU.

B9: 6mer-1-932 (peptide)
peptide: KRFEFK
The molecule B9 registered a Binding affinity (RU) with acetylcholine receptor [2] of 38 RU.

B10: 6mer-2-894 (peptide)
peptide: RFHWRR
In the assay with acetylcholine receptor [1], B10 registered a Binding affinity (RU) of 22 RU.

B11: 5mer-761 (peptide)
peptide: RMPWR
B11 returned a Binding affinity (RU) with acetylcholine receptor [1] of 31 RU.

B12: 6mer-2-892 (peptide)
peptide: KDENRK
On to B12, for which, in the assay with acetylcholine receptor [1], the Binding affinity (RU) stood at 27 RU.

B13: 6mer-2-890 (peptide)
peptide: RDNPKR
Consider B13, for which, in the assay with acetylcholine receptor [1], the Binding affinity (RU) turned out to be 30 RU.

B14: 5mer-1056 (peptide)
peptide: RCTPK
The molecule B14 gave a Binding affinity (RU) with acetylcholine receptor [1] of 11 RU.

B15: 6mer-1-934 (peptide)
peptide: KRPPGK
For B15, the Binding affinity (RU) with acetylcholine receptor [2] turned out to be 39 RU.

B16: 5mer-765 (peptide)
peptide: RNEFR
B16 came in with a Binding affinity (RU) with acetylcholine receptor [1] of 12 RU.

B17: 5mer-769 (peptide)
peptide: KTEWK
In turn, B17 displayed a Binding affinity (RU) with acetylcholine receptor [1] of 32 RU.

B18: 6mer-2-896 (peptide)
peptide: RTCARR
In turn, B18 gave a Binding affinity (RU) in the assay with acetylcholine receptor [1] of 30 RU.

B19: 5mer-1059 (peptide)
peptide: RMAGR
B19: the Binding affinity (RU) with acetylcholine receptor [1] was found to be 29 RU.

B20: 6mer-1-935 (peptide)
peptide: RKKDIK
The molecule B20 gave a Binding affinity (RU) with acetylcholine receptor [2] of 40 RU.

B21: 5mer-753 (peptide)
peptide: RKTPK
Molecule B21 showed a Binding affinity (RU) with acetylcholine receptor [1] of 30 RU.

B22: 5mer-1068 (peptide)
peptide: RMHKK
B22 showed a Binding affinity (RU) with acetylcholine receptor [1] of 11 RU.

B23: 6mer-2-889 (peptide)
peptide: REWDKK
Turning to B23, the Binding affinity (RU) with acetylcholine receptor [1] came to 12 RU.

B24: 6mer-2-897 (peptide)
peptide: RPAHKK
Molecule B24 had a Binding affinity (RU) with acetylcholine receptor [1] of 17 RU.

B25: 5mer-772 (peptide)
peptide: KYWFK
As to B25, in the assay with acetylcholine receptor [1], the Binding affinity (RU) is 11 RU.

B26: 6mer-2-891 (peptide)
peptide: RTSIRK
In the assay with acetylcholine receptor [1], B26 yielded a Binding affinity (RU) of 28 RU.

B27: 6mer-1-936 (peptide)
peptide: RKETDR
In the case of B27, the Binding affinity (RU) with acetylcholine receptor [2] is 36 RU.

B28: 5mer-767 (peptide)
peptide: RFHFK
In the assay with acetylcholine receptor [1], B28 showed a Binding affinity (RU) of 12 RU.

B29: 5mer-1071 (peptide)
peptide: RYEGR
B29 had a Binding affinity (RU) with acetylcholine receptor [1] of 16 RU.

B30: 5mer-1054 (peptide)
peptide: RNKVR
In the assay with acetylcholine receptor [1], B30 came in with a Binding affinity (RU) of 21 RU.

B31: 5mer-1072 (peptide)
peptide: KDWPK
In turn, B31 yielded a Binding affinity (RU) with acetylcholine receptor [1] of 32 RU.

B32: 5mer-757 (peptide)
peptide: KYCMR
For the molecule B32, in the assay with acetylcholine receptor [1], the Binding affinity (RU) was 17 RU.

B33: 5mer-1063 (peptide)
peptide: RPHVK
Regarding B33, the Binding affinity (RU) with acetylcholine receptor [1] stood at 20 RU.

B34: 5mer-1051 (peptide)
peptide: RYAHR
Turning to B34, in the assay with acetylcholine receptor [1], the Binding affinity (RU) is 28 RU.

B35: 5mer-1050 (peptide)
peptide: KPEDR
Turning to B35, the Binding affinity (RU) with acetylcholine receptor [1] worked out at 31 RU.

B36: 5mer-1074 (peptide)
peptide: RPCPR
On to B36, for which the Binding affinity (RU) with acetylcholine receptor [1] turned out to be 17 RU.

B37: 5mer-771 (peptide)
peptide: RKWVK
In turn, B37 yielded a Binding affinity (RU) with acetylcholine receptor [1] of 24 RU.

B38: 5mer-759 (peptide)
peptide: KHKMR
In the assay with acetylcholine receptor [1], B38 returned a Binding affinity (RU) of 17 RU.

B39: 5mer-1052 (peptide)
peptide: RNDWR
B39 displayed a Binding affinity (RU) with acetylcholine receptor [1] of 17 RU.

B40: 5mer-1057 (peptide)
peptide: RFDPK
B40 yielded a Binding affinity (RU) in the assay with acetylcholine receptor [1] of 13 RU.

B41: 5mer-1070 (peptide)
peptide: RETGK
As for B41, the Binding affinity (RU) in the assay with acetylcholine receptor [1] came to 26 RU.

B42: 5mer-749 (peptide)
peptide: KHTWR
As to B42, the Binding affinity (RU) with acetylcholine receptor [1] turned out to be 24 RU.

B43: 6mer-2-895 (peptide)
peptide: KYMAKK
Regarding B43, the Binding affinity (RU) with acetylcholine receptor [1] is 28 RU.

B44: 6mer-2-893 (peptide)
peptide: REHVRR
As for B44, the Binding affinity (RU) in the assay with acetylcholine receptor [1] worked out at 17 RU.

B45: 5mer-752 (peptide)
peptide: KAWVK
B45 returned a Binding affinity (RU) with acetylcholine receptor [1] of 26 RU.

B46: 5mer-1069 (peptide)
peptide: RPSFK
As for B46, the Binding affinity (RU) with acetylcholine receptor [1] turned out to be 31 RU.

B47: 6mer-1-937 (peptide)
peptide: RKPTNR
B47 returned a Binding affinity (RU) with acetylcholine receptor [2] of 34 RU.

B48: 6mer-1-933 (peptide)
peptide: RRPWNR
For B48, the Binding affinity (RU) with acetylcholine receptor [2] worked out at 28 RU.

B49: 5mer-1053 (peptide)
peptide: KHEHK
In the assay with acetylcholine receptor [1], B49 returned a Binding affinity (RU) of 27 RU.

B50: 6mer-2-898 (peptide)
peptide: KKKDKK
B50 came in with a Binding affinity (RU) with acetylcholine receptor [1] of 16 RU.

B51: 5mer-758 (peptide)
peptide: KCDFK
B51 registered a Binding affinity (RU) with acetylcholine receptor [1] of 30 RU.

B52: 5mer-773 (peptide)
peptide: RPNMR
Regarding B52, the Binding affinity (RU) with acetylcholine receptor [1] came out at 25 RU.

B53: 5mer-751 (peptide)
peptide: RYMMR
On to B53, for which the Binding affinity (RU) with acetylcholine receptor [1] is 20 RU.

B54: 6mer-1-938 (peptide)
peptide: KKIAWK
For B54, the Binding affinity (RU) with acetylcholine receptor [2] turned out to be 28 RU.

B55: 5mer-1061 (peptide)
peptide: KDSFR
On to B55, for which the Binding affinity (RU) with acetylcholine receptor [1] was 24 RU.

B56: 6mer-2-888 (peptide)
peptide: RIAKRK
B56 returned a Binding affinity (RU) with acetylcholine receptor [1] of 17 RU.

B57: 5mer-775 (peptide)
peptide: RHTVK
In the case of B57, in the assay with acetylcholine receptor [1], the Binding affinity (RU) came out at 23 RU.

B58: 5mer-766 (peptide)
peptide: RNMEK
Molecule B58 gave a Binding affinity (RU) in the assay with acetylcholine receptor [1] of 30 RU.

B59: 5mer-760 (peptide)
peptide: RIWAR
For B59, the Binding affinity (RU) with acetylcholine receptor [1] came to 19 RU.

B60: 5mer-755 (peptide)
peptide: KNWDR
Turning to B60, the Binding affinity (RU) with acetylcholine receptor [1] was 15 RU.

B61: 5mer-764 (peptide)
peptide: KTWPK
As to B61, the Binding affinity (RU) with acetylcholine receptor [1] came out at 19 RU.

B62: 5mer-774 (peptide)
peptide: RTCDR
On to B62, for which the Binding affinity (RU) with acetylcholine receptor [1] was 25 RU.

B63: 5mer-1049 (peptide)
peptide: KPPGR
In turn, B63 came in with a Binding affinity (RU) with acetylcholine receptor [1] of 29 RU.

B64: 5mer-1066 (peptide)
peptide: RFWVK
Consider B64, for which, in the assay with acetylcholine receptor [1], the Binding affinity (RU) came out at 25 RU.

B65: 5mer-763 (peptide)
peptide: RCHVR
In the assay with acetylcholine receptor [1], B65 returned a Binding affinity (RU) of 30 RU.

B66: 5mer-754 (peptide)
peptide: RKNER
With B66, the Binding affinity (RU) with acetylcholine receptor [1] came to 29 RU.

B67: 5mer-1065 (peptide)
peptide: KNPIR
In turn, B67 yielded a Binding affinity (RU) with acetylcholine receptor [1] of 18 RU.

B68: 5mer-770 (peptide)
peptide: KKPFR
In the case of B68, the Binding affinity (RU) with acetylcholine receptor [1] came to 11 RU.

B69: 5mer-1058 (peptide)
peptide: KIPWR
For the molecule B69, the Binding affinity (RU) with acetylcholine receptor [1] was 25 RU.

B70: 5mer-768 (peptide)
peptide: RDSWR
Consider B70, for which, in the assay with acetylcholine receptor [1], the Binding affinity (RU) was found to be 11 RU.

B71: 5mer-750 (peptide)
peptide: KEADK
As to B71, in the assay with acetylcholine receptor [1], the Binding affinity (RU) was found to be 13 RU.
